No end group written: not given here.
Columns and labels:
[1] = biological target: T1, SNAP-Syk tSH2 (mouse, UniProt P48025 1-262); assay: liposome-based fluorescence quenching (FRET) assay; His10-FcRγ on NiNTA liposomes phosphorylated by Lck, 100 nM SNAP-505 Syk tSH2, receptor titrated 0-500 nM; apparent Kd, one site specific binding fit
Method: (§1) Experiments were carried out as previously described (Alvey C M et al., Current Biology 27:2065-2077, 2017). Briefly, proteins were purified using a bacterial expression system. All protein components (1 mg/ml BSA, 100 nM tSH2-Syk SNAP-505, 0 to 500 nM His10-CD3ζ or His10-FcRγ intracellular chain, and 7.2 nM His10-Lck Y505F) were mixed into kinase buffer (50 mM HEPES-NaOH pH 6.8, 150 mM NaCl, 10 mM MgCl₂, and 1 mM TCEP). Liposomes prepared at the following molar ratios: 74.5% POPC (Avanti, Catalog #850457C), 10% DOGS-NTA (Nickel) (Avanti, Catalog #790404C, 0.5% Rhodamine PE (Avanti, Catalog #810150C), and 15% DOPS (Avanti, Catalog #840035C) were added and the mixture was incubated for 40-60 minutes at room temperature, during which the SNAP-505 fluorescence was monitored at 8 s intervals with 504 nm excitation and 540 nm emission. 1 mM ATP was then injected to trigger Lck mediated phosphorylation of CD3ζ or FcRγ. Injection was followed by 5 seconds of automatic shaking of the plate, and the fluorescence was further monitored at 8 s intervals for at least 1 hr. Data were normalized by setting the average fluorescence value of the last 10 data points before ATP addition as 100% and background fluorescence as 0%. […]

[2] = biological target: T1, SNAP-Syk tSH2; assay: liposome-based fluorescence quenching assay: SNAP-505-labelled Syk tSH2 reporter, rhodamine-PE liposomes carrying His10-receptor tail (0 to 500 nM) phosphorylated by His10-Lck Y505F after ATP; Kd ± SE from a one-site specific binding fit
Method: as §1

B1: His10-FcRγ (other, human)
chain: HHHHHHHHHHRLKIQVRKAAITSYEKSDGVYTGLSTRNQETYETLKHEKPP
modifications: not fully specified
notes: range 45-85; titrated 0 to 500 nM; also called His10-FcRγ intracellular chain; His10-FcRγ-chain
[1]
  Kd: ~30 nM
[2]
  Kd: 31.2 nM

From patent publication US20210277140A1 (University of California, published 2021)
